One experiment deals with T1, RXR (Mus musculus, UniProt P28704).
T1 construct: expressed in transfected cells; host or cells: HeLa
T1 sequence (P28704 1-520): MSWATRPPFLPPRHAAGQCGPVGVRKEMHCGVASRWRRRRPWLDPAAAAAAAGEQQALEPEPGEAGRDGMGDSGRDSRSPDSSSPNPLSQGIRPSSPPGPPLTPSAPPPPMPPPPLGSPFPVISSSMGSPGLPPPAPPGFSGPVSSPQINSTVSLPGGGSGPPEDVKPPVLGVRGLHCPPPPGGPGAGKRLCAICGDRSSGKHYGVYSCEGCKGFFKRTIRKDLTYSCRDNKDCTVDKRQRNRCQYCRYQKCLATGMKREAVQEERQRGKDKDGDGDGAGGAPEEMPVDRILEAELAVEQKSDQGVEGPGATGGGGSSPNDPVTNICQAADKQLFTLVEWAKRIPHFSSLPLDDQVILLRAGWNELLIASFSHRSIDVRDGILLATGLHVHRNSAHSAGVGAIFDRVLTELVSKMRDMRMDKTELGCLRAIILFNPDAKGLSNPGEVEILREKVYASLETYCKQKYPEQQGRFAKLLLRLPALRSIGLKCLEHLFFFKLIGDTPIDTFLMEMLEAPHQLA
Briefly: CAT reporter assay RXR/DR1-tk-CAT in HeLa cells. The format is cell-based. Particulars: 3 μg SRC-1, 9-cis retinoic acid 2×10^−8 M. How it is done: Biol. 13, 6501-6508), Sp1 and Sp1-tk-CAT (Courey, A. J. and Tjian, R. (1988), Cell 55, 887-898), CREB and CRE-tk-CAT (Chrivia, J. C. et al., (1993), Nature 365, 855) and GAL4VP16 and 17mer-tk-CAT (Baniahmad, A. et al., (1992), EMBO J. 11, 1015-1023) have been previously described and the above references are incorporated herein by reference in their entirety, including any drawings.
Lipofectin (GibcoBRL) was selected for transfection of Hela cells.
HeLa cells were cotransfected with 0.5 μg of cDNAs encoding various steroid receptors indicated and 5 μg of their cognates HREs containing reporters, including PR/PRE2-TATA-CAT, ER/ERE2-TATA-CAT, GR/PRE2-TATA-CAT, TR-/DR4-tk-CAT and RXR/DR1-tk-CAT, along with 3 μg of SRC-1 or empty expression vector. Cells were then treated with their corresponding ligands (PR:R5020, ER:estradiol, GR:dexamethasone, TR:Triac, RXR:9-cis retinoic acid) at a concentration of 2×10^−8M. The CAT activity of the reporter was determined using 14 μg of protein extract.
(In general: A reporter such as luciferase makes a cellular process visible.)

The test system of a further experiment is GAL4-VP16. Particulars: HeLa cells, UASG element.

Protocol for GAL4-VP16: Cells were maintained in Dulbecco's modified Eagle's medium supplemented with 10% (vol/vol) fetal calf serum (Smith, C. L. et al., (1993), Proc. Natl. Acad. Sci. USA 90, 6120-6124). The day before transfection, 10^6 cells were seeded in 100 mm dishes and 4-6 h later switched serum-free medium supplemented with Nutridoma-SR (Boehringer Mannhein). When ER was used for transfections, phenol-red-free medium was used (Smith, C. L. et al., (1993), Proc. Natl. Acad. Sci. USA 90, 6120-6124). HeLa cells were transfected with mammalian expression vectors encoding steroid receptors or other transcription factors along with 5 μg of CAT reporter. Lipofectin (GibcoBRL) was selected for transfection of Hela cells.
Cells were then harvested and proteins prepared as whole-cell extracts by freeze-thaw lysis. The reporter CAT activity in the extract was determined using 100 uCi of [^14C]-chloramphenicol and 4 mM acetyl coenzyme A as substrate and standardized by protein content. Activity of the extract was calculated by determining the percentage of conversion of [^14C]-chloramphenicol to the mono and diacetylated forms (Ausubel, F. M., et al., (1992), Short Protocols In Molecular Biology, New York: Greene Publishing Associates and John Wiley & Sons). […]

B1: steroid receptor coactivator-one (SRC-1), full-length (protein)
chain: MSIPRVNPSVNPSISPAHGVARSSTLPPSNSNMVSTRINRQQSSDLHSSSHSNSSNSQGSFGCSPGSQIVANVALNKGQASSQSSKPSLNLNNPPMEGTGISLAQFMSPRRQVTSGLATRPRMPNNSFPPNISTLSSPVGMTSSACNNNNRSYSNIPVTSLQGMNEGPNNSVGFSASSPVLRQMSSQNSPSRLNIQPAKAESKDNKEIASTLNEMIQSDNSSSDGKPLDSGLLHNNDRLSDGDSKYSQTSHKLVQLLTTTAEQQLRHADIDTSCKDVLSCTGTSNSASANSSGGSCPSSHSSLTARHKILHRLLQEGSPSDITTLSVEPDKKDSASTSVSVTGQVQGNSSIKLELDASKKKESKDHQLLRYLLDKDEKDLRSTPNLSLDDVKVKVEKKEQMDPCNTNPTPMTKATPEEIKLEAQSQFTADLDQFDQLLPTLEKAAQLPGLCETDRMDGAVTSVTIKSEILPASLQSATARPTSRLNRLPELELEAIDNQFGQPGTGDQIPWTNNTVTAINQSKSEDQCISSQLDELLCPPTTVEGRNDEKALLEQLVSFLSGKDETELAELDRALGIDKLVQGGGLDVLSERFPPQQATPPLIMEERPNLYSQPYSSPFPTANLPSPFQGMVRQKPSLGTMPVQVTPPRGAFSPGMGMQPRQTLNRPPAAPNQLRLQLQQRLQGQQQLIHQNRQAILNQFAATAPVGINMRSGMQQQITPQPPLNAQMLAQRQRELYSQQHRQRQLIQQQRAMLMRQQSFGNNLPPSSGLPVQTGNPRLPQGAPQQFPYPPNYGTNPGTPPASTSPFSQLAANPEASLANRNSMVSRGMTGNIGGQFGTGINPQMQQNVFQYPGAGMVPQGEANFAPSLSPGSSMVPMPIPPPQSSLLQQTPPASGYQSPDMKAWQQGAIGNNNVFSQAVQNQPTPAQPGVYNNMSITVSMAGGNTNVQNMNPMMAQMQMSSLQMPGMNTVCPEQINDPALRHTGLYCNQLSSTDLLKTEADGTQQVQQVQVFADVQCTVNLVGGDPYLNQPGPLGTQKPTSGPQTPQAQQKSLLQQLLTE
For B1, in the experiment with RXR, the “effect on RXR transcriptional activity” value was “enhance”. Moreover, the “effect on GAL4-VP16 transcriptional activity” value with GAL4-VP16 is given as “enhanced”.

For the origin of these results see patent publication US6380373B1, “Steroid receptor coactivator compositions and methods of use” (Baylor College of Medicine, priority 1995, dated 2002).
